Results on one molecule are retold here after US10344330B2, “Glatiramer acetate response biomarker mRNA potency assay” (Mylan Inc., priority 2013, dated 2019).

What all share (assay type): cell-based, mouse
In assay [1] the test system is mIFN-γ mRNA in primary LN cells. The experiment in a line: mIFN-γ mRNA by real-time PCR in stimulated LN cells of immunized (SJL/J×BALB/C)F1 mice (Example I). To be noted: GA 10, MBP 10, ConA 2.5 μg/mL. The method, then: For each of the three experiments summarized in Table 1, female (SJL/J×BALB/C) F1 hybrid (Jackson Laboratory) mice were immunized by footpad injection with either 250 μg GMA (Mylan Pharmaceuticals, Inc.) and CFA (Sigma Aldrich), or Mannitol and CFA (as a negative control). The GA solution was diluted to 5 mg/mL with Dulbecco's Phosphate-buffered saline. A dose solution was then prepared by mixing the diluted GA solution (5 mg/mL) and CFA (1:1) until well-emulsified. Each mouse received a total injection volume of 0.1 mL (250 μg GA). Animals were immunized on Day 0. Immunized animals were sacrificed via cervical dislocation on Day 10 following immunization. […] The LN were washed 3 times with −5 mL of RPMI medium, and the LN cells isolated by pressing the LN with a syringe plunger. […] The cell suspension was centrifuged at about 200×g for 10 minutes at about 4° C. and re-suspended in ice cold enriched DCCM-1 medium. The LN cells (2.5×10^6 cells/cm^2) were plated in the wells of a 48-well tissue culture plate and stimulated with GA or controls.
Expression of cytokine mRNA was quantitatively analyzed using a Real-Time PCR system (7500, Applied Biosystems).
(DCCM1 from Beit Haemek Ltd.; Cat. No. 05 010 1A). There was no MBP treatment for the 2-hour groups.
Group 1B animals were female (SJL/J×BALB/C) F1 hybrid (Jackson Laboratory) mice immunized by footpad injection with either 250 μg GA and CFA, or Mannitol and CFA (as a negative control). A dose solution was prepared by mixing a diluted GA solution (5 mg/mL) and CFA (1:1). Each mouse received a total injection volume of […] (250 μg GA). Animals were immunized on Day 0. Immunized animals were sacrificed via cervical dislocation on Day 10 following immunization. Lymph nodes from immunized mice were removed and isolated. LN cells (2.5×10^6 cells/cm^2) were plated in the wells of a 48-well tissue culture plate for stimulation with GA.
Expression of cytokine mRNA was quantitatively analyzed 4 and 6 hours after using a Real-Time PCR system (7500, Applied Biosystems).

Assay [2] relates to IL-1b secreted by LN cells. The experiment in a line: IL-1b secretion by GA-stimulated LN cells, MSD 9-plex ELISA (Example II). To be noted: 21 hr. In general terms: In an ELISA, binding on a coated surface is turned into a signal by an enzyme label.
A further assay deals with IL-2 mRNA in LN cells. The experiment in a line: IL-2 mRNA by real-time PCR in LN cells of GA-immunized CD-1, BALB/cByJ, SJL/J mice (Example III). To be noted: stimulation 10 μg/mL, 6 hours. The method, then: (§1) On Day 0, mice were immunized with 250 μg GA (GMA, Mylan Pharmaceuticals, Inc.) and CFA. The GA solution (20 mg/mL) was diluted with Dulbecco's Phosphate-Buffered Saline to 5 mg/mL. The dosing formulation consisted of equal volumes of the diluted GA solution (5 mg/mL) and CFA solution, mixed until well-emulsified. Animals were weighed and allocated to groups. Animals were dosed by injection into four footpads. The injection volume per animal was 0.1 mL (about 10 μL into each front footpad, and 40 μL into each hind footpad).
(§2) Immunized animals were euthanized by cervical dislocation on Day 10 post-immunization. Lymph node cells were isolated from animals and treated with Myelin Basic Protein (MBP, a negative control), Concanavalin A (ConA, a positive control) or GA as shown in Table 16. Lymph nodes in the axillary and popliteal regions were removed aseptically in a purifier clean bench. […] The LN were then washed 3 times with −5 mL of RPMI medium, and isolated by pressing the LN with a syringe plunger. […] The cell suspension was centrifuged at about 200×g for 10 minutes at about 4° C. and re-suspended in ice cold enriched DCCM-1 medium. Cells were seeded in 96-well tissue culture plates.
(§3) LN cells isolated from GA-immunized animals were stimulated with GA (GMA, Mylan Pharmaceuticals, Inc.) at concentrations as indicated in Tables 16 and 17. A positive control was prepared by treating LN cells with 2.5 μg/mL concavalin A (ConA, a non-specific T cell stimulant). Myelin basic protein (MBP, 10 μg/mL) and enriched DCCM-1 medium served as negative controls. The cells from all groups each were stimulated with the same GA lot. Each reaction was set up in triplicate.
(§4) After incubation at about 37° C. in a humidified CO2 incubator for 6 hours, the cells were lysed for total RNA isolation. Total RNA was isolated from treated LN cells using SV 96 Total RNA Isolation System according to the manufacturer's protocol (Promega, Cat. #Z3500). Cells were washed once with Phosphate Buffered Saline (PBS) and lysed in RNA lysis buffer. The lysate was transferred to wells of the SV 96 binding plate. Samples were washed with RNA wash solution and treated with DNase. Total RNA was eluted with nuclease-free water from the binding plate.
(§5) After the reverse transcriptase reaction was completed, cDNA samples were used directly for real-time PCR to measure the response biomarker mRNA levels produced by the stimulated cells. […] All probes for target genes contained FAM dye, and probes for the internal control contained VIC®/MGB dye. Samples will be prepared and run in 96-well plates using a Real-Time PCR system (7500, Life Technologies). This system allows direct detection of PCR-product formation by measuring the increase in fluorescent emission continuously during the PCR reaction. A relative quantitation method was used to analyze changes in mouse IL-2, IL-4, IL-5, IL-10, IL-13, IFN-γ and TNF-α expression in GA-treated samples relative to the untreated control (enriched DCCM-1 treated) samples. The Real-Time PCR program was:
(§6) The levels of mouse cytokine amplicons (IL-2, IL-4, IL-5, IL-10, IL-13, mIFN-γ and TNF-α) were normalized to internal probe levels (GAPDH) from the same samples. The following equations were used to calculate the relative increase in response to GA stimulation compared to the control sample: ΔCT=CT_target−CT_reference ΔΔCT=−ΔCT_Treated−CT_VC

For assay [3], the system named is KC (CXCL1) secreted by LN cells. The experiment in a line: KC (CXCL1) secretion by GA-stimulated LN cells, MSD 9-plex ELISA (Example II). To be noted: 21 hr.
Another assay has as its system IL-5 mRNA in LN cells. The experiment in a line: IL-5 mRNA by real-time PCR in LN cells of GA-immunized CD-1, BALB/cByJ, SJL/J mice (Example III). To be noted: stimulation 10 μg/mL, 6 hours. The method, then: as §1, §2, §3, §4, §5, §6
Setting [4] is: BALB/cByJ, immunized GA Lower Limb.
[5] abbreviates: C57BL10J, immunized GA Lower Limb.
[6] abbreviates: Group 2C: BALB/cByJ, GA-immunized.

B1: MBP: myelin basic protein, a negative control (protein, UniProt P02686 1-304, looked up)
Myelin basic protein: MGNHAGKRELNAEKASTNSETNRGESEKKRNLGELSRTTSEDNEVFGEADANQNNGTSSQDTAVTDSKRTADPKNAWQDAHPADPGSRPHLIRLFSRDAPGREDNTFKDRPSESDELQTIQEDSAATSESLDVMASQKRPSQRHGSKYLATASTMDHARHGFLPRHRDTGILDSIGRFFGGDRGAPKRGSGKDSHHPARTAHYGSLPQKSHGRTQDENPVVHFFKNIVTPRTPPPSQGKGRGLSLSRFSWGAEGQRPGFGYGGRASDYKSAHKGFKGVDAQGTLSKIFKLGGRDSRSGSPMARR
B1: the “mIFN-γ mRNA Level” value in assay [1] (Experiment 1, GA-immunized (SJL/J×BALB/C)F1, 4 hour post stimulation) came out at 0.8 fold change vs control; in assay [1] (Experiment 1, GA-immunized (SJL/J×BALB/C)F1, 6 hour post stimulation), 0.2 fold change vs control; in assay [1] (Experiment 1, GA-immunized (SJL/J×BALB/C)F1, 24 hour post stimulation) it was 0.6 fold change vs control; in assay [1] (Group 1B (GA + CFA), 4 hours post-stimulation, reference GAPDH) it was 0.9 fold change vs control; in assay [1] (Group 1B (GA + CFA), 6 hours post-stimulation, reference GAPDH) it was 0.6 fold change vs control; in assay [1] (Group 2B (Mannitol + CFA), 4 hours post-stimulation, reference GAPDH), 1.1 fold change vs control. The “mIFN-γ mRNA Level” value in assay [1] (Group 2B (Mannitol + CFA), 6 hours post-stimulation, reference GAPDH) was 0.9 fold change vs control. Further, the “IL-1b secretion response ratio (treated cell medium to control DCCM1 medium)” value in assay [2] (BALB/cByJ, immunized GA Intraplantar) is reported as 1.15; in assay [2] (setting [4]), 0.96; in assay [2] (setting [5]) it was 1.17; in assay [2] (CD-1, immunized GA Lower Limb) it was 1.00. Besides, the “IL-2 mRNA Expression” value is listed as 0.9 fold change vs control in the assay on IL-2 mRNA in LN cells (Group 1C: CD-1, GA-immunized); 2.7 fold change vs control in the assay on IL-2 mRNA in LN cells (setting [6]); 0.5 fold change vs control in the assay on IL-2 mRNA in LN cells (Group 3C: SJL/J, GA-immunized). The “KC secretion response ratio (treated cell medium to control DCCM1 medium)” value in assay [3] (setting [4]) was found to be 1.02; in assay [3] (C57BL10J, immunized GA Intraplantar) it was 1.00; in assay [3] (setting [5]), 1.04; in assay [3] (CD-1, immunized GA Lower Limb), 1.08. Also, the “IL-5 mRNA Expression” value in the assay with IL-5 mRNA in LN cells (Group 1C: CD-1, GA-immunized) is reported as 0.8 fold change vs control; in the assay with IL-5 mRNA in LN cells (setting [6]) it was 0.2 fold change vs control; in the assay on IL-5 mRNA in LN cells (Group 3C: SJL/J, GA-immunized), 0.8 fold change vs control.
